From US7144576 come the findings set out here.

The series deals with bovine transducin (UniProt P04695).
Sequence of bovine transducin (P04695 2-350): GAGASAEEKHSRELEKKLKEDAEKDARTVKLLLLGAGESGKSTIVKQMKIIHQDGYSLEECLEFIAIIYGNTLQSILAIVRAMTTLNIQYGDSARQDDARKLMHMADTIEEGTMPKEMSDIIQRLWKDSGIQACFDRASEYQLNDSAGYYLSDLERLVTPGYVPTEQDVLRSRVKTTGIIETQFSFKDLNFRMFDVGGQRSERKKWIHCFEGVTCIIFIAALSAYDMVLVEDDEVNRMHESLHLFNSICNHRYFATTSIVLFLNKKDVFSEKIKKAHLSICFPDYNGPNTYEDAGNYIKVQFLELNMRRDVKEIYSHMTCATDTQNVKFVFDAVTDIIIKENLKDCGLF

With “recombinant S1 protein of native sequence from pPTXS1/1”, the “ADP-ribosyltransferase activity (autoradiogram of SDS-PAGE, [32P]NAD)” value is reported as “The radioactive band at 39 Kd is the transducin subunit which has been ribosylated”.
